# Data from publication PMC5910447, “Efficient production of secretory Streptomyces clavuligerus β-lactamase inhibitory protein (BLIP) in Pichia pastoris” (AMB Express, 2018).
# Biological target: T1, TEM-1 β-lactamase (UniProt P62593 24-286)
# T1 construct: TEM-1 β-lactamase (class A); whether the construct carries a tag or its signal peptide is not known; also called TEM-1 enzyme; source: E. coli haboring pRSET-K/TEM-1 β-lactamase (lab stock); production procedure in Additional file 1: Methods
# T1 sequence (P62593 24-286): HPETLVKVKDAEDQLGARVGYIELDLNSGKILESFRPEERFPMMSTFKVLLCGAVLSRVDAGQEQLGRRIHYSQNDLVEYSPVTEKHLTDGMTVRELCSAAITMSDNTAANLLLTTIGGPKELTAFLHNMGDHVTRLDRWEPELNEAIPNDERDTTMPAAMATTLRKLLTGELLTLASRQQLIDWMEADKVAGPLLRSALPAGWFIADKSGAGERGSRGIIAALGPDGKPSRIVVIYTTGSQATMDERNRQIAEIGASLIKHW
# Experiment: enzyme inhibition assay (nitrocefin hydrolysis, free β-lactamase against inhibitor concentration); 1.5 nM TEM-1 β-lactamase pre-incubated with 0–15 nM BLIP in 50 mM sodium phosphate buffer with 1 mg/mL bovine serum albumin for 2 h at 25 °C; then 21 μM nitrocefin, absorbance at 500 nm; nonlinear fit to Eq. 1; Ki* (equilibrium dissociation constant) equivalent to Ki
binder,measurement,value
"β-Lactamase inhibitory protein (BLIP), recombinant, secreted by P. pastoris (EAEAEF-mature BLIP) (natural protein, Streptomyces clavuligerus, peptide left at the N-terminus after Kex2 cleavage of the α-factor mating signal; the blip gene's own terminator was kept, so no C-terminal vector tags are expected (calculated mass 18,219.25 matches EAEAEF-mature BLIP); also called recombinant BLIP; P. pastoris-expressed BLIP; source: P. pastoris X-33 (pPICZαA/BLIP, methanol induction), secreted; recovered from the culture supernatant without …) EAEAEFAGVMTGAKFTQIQFGMTRQQVLDIAGAENCETGGSFGDSIHCRGHAAGDYYAYATFGFTSAAADAKVDSKSQEKLLAPSAPTLTLAKFNQVTVGMTRAQVLATVGQGSCTTWSEYYPAYPSTAGVTLSLSCFDVDGYSSTGFYRGSAHLWFTDGVLQGKRQWDLV",Ki,550 ± 70 pM
